For experiment [1], the target named is integrin β1 on human synovium-derived stem cells (human) (UniProt P05556). As to the kind of experiment: flow cytometry staining of human synovium-derived stem cells, third lot listed (ST1434). (A flow cytometer gives signals particle by particle.)
Experiment [2] shares this target. The experiment in a line: flow cytometry staining of human synovium-derived stem cells, second lot listed (ST1420).
Experiment [3] shares this target. As to the kind of experiment: flow cytometry staining of human synovium-derived stem cells, fourth lot listed (ST1462).
The target is the same in experiment [4]. As to the kind of experiment: flow cytometry staining of human synovium-derived stem cells, first lot listed (ST1414).
Experiment [5] addresses platelet-derived growth factor receptor β on rat synovium-derived mesenchymal stem cells (rat) (UniProt Q05030). As to the kind of experiment: flow cytometry staining of rat synovium-derived MSC with FITC anti-goat secondary, TrypLE detachment 120 minutes.
For experiment [6] the target is unchanged. As to the kind of experiment: flow cytometry staining of rat synovium-derived MSC with FITC anti-goat secondary, TrypLE detachment 30 minutes.
Experiment [7] addresses platelet-derived growth factor receptor β on human synovium-derived stem cells (human) (UniProt P09619). As to the kind of experiment: flow cytometry staining of human synovium-derived stem cells, third lot listed (ST1434).
The target in experiment [8] is platelet-derived growth factor receptor β on rat synovium-derived mesenchymal stem cells (rat) (UniProt Q05030). The experiment in a line: flow cytometry staining of rat synovium-derived MSC with FITC anti-goat secondary, TrypLE detachment 60 minutes.
Experiment [9] deals with platelet-derived growth factor receptor β on human synovium-derived stem cells (human) (UniProt P09619). The experiment in a line: flow cytometry staining of human synovium-derived stem cells, second lot listed (ST1420).
For experiment [10] the target is unchanged. As to the kind of experiment: flow cytometry staining of human synovium-derived stem cells, fourth lot listed (ST1462).
For experiment [11], the target named is platelet-derived growth factor receptor β on rat synovium-derived mesenchymal stem cells (rat) (UniProt Q05030). As to the kind of experiment: flow cytometry staining of rat synovium-derived MSC with FITC anti-goat secondary, TrypLE detachment 5 minutes.
Experiment [12] addresses platelet-derived growth factor receptor β on human synovium-derived stem cells (human) (UniProt P09619). As to the kind of experiment: flow cytometry staining of human synovium-derived stem cells, first lot listed (ST1414).
Experiment [13] concerns the target platelet-derived growth factor receptor β on rat synovium-derived mesenchymal stem cells (rat) (UniProt Q05030). As to the kind of experiment: cell-based or functional assay.
For experiment [14], the target named is integrin β1 on rat synovium-derived mesenchymal stem cells (rat) (UniProt P49134). As to the kind of experiment: flow cytometry staining of rat synovium-derived MSC, TrypLE detachment 5 minutes.
The target is the same in experiment [15]. As to the kind of experiment: flow cytometry staining of rat synovium-derived MSC, TrypLE detachment 60 minutes.
Experiment [16] has the same target. The experiment in a line: flow cytometry staining of rat synovium-derived MSC cultured 28 days, TrypLE detachment 120 minutes.
The target is the same in experiment [17]. As to the kind of experiment: flow cytometry staining of rat synovium-derived MSC cultured 8 days, TrypLE detachment 120 minutes.
For experiment [18] the target is unchanged. As to the kind of experiment: flow cytometry staining of rat synovium-derived MSC, TrypLE detachment 30 minutes.
For experiment [19] the target is unchanged. The experiment in a line: flow cytometry staining of rat synovium-derived MSC, TrypLE detachment 120 minutes.
Experiment [20] has the same target. The experiment in a line: flow cytometry staining of rat synovium-derived MSC cultured 21 days, TrypLE detachment 120 minutes.

The values below come from patent US20240299459A1.

UniProt P09619, sequence (P09619 33-1106): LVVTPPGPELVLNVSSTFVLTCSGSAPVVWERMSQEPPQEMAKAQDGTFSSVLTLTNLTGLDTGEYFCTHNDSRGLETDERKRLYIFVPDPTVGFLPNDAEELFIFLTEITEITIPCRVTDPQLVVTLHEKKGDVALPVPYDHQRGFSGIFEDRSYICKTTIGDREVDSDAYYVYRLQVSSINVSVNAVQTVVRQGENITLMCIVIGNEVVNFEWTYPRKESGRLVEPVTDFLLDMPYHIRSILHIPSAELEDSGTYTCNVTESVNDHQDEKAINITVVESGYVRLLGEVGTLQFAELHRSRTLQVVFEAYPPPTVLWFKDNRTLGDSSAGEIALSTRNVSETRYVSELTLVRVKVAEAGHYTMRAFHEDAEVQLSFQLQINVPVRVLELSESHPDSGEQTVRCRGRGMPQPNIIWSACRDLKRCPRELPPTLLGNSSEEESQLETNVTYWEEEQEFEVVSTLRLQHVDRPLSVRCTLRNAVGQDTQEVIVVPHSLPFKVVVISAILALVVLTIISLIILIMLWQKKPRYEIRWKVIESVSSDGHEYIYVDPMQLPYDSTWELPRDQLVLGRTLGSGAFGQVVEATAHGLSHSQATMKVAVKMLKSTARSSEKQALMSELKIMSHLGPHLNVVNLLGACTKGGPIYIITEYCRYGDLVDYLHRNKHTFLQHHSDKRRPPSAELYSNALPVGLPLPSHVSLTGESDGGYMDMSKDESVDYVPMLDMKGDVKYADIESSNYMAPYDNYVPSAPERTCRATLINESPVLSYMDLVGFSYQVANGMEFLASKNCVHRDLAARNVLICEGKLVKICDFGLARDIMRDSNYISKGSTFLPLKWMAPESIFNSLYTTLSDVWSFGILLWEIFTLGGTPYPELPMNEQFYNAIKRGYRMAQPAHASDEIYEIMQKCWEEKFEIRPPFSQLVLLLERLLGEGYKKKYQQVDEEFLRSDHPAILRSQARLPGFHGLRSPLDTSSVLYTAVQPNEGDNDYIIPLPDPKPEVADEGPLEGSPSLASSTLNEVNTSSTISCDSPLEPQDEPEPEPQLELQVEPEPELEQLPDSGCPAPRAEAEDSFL
UniProt P49134, sequence (P49134 21-798): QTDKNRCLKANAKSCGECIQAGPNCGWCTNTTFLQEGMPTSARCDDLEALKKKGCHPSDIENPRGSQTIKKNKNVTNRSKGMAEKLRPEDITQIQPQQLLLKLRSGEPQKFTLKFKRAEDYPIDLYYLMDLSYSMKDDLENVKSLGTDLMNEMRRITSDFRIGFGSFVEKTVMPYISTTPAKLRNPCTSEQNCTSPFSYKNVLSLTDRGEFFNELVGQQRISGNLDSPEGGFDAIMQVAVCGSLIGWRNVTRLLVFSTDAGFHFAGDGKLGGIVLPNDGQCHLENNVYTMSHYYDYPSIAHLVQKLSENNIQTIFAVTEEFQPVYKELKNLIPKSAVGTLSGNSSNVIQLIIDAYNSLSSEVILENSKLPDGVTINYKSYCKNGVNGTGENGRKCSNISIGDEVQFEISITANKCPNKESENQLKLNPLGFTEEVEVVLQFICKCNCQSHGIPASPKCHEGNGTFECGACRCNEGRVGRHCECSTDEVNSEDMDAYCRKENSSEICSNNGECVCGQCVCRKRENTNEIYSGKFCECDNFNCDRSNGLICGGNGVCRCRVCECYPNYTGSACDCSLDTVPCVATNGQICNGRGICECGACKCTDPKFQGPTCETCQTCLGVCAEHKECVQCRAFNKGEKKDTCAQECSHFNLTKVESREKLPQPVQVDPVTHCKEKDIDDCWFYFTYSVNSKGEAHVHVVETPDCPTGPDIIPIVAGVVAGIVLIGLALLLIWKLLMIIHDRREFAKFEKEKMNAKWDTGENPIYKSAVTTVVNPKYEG
UniProt P05556, sequence (P05556 21-798): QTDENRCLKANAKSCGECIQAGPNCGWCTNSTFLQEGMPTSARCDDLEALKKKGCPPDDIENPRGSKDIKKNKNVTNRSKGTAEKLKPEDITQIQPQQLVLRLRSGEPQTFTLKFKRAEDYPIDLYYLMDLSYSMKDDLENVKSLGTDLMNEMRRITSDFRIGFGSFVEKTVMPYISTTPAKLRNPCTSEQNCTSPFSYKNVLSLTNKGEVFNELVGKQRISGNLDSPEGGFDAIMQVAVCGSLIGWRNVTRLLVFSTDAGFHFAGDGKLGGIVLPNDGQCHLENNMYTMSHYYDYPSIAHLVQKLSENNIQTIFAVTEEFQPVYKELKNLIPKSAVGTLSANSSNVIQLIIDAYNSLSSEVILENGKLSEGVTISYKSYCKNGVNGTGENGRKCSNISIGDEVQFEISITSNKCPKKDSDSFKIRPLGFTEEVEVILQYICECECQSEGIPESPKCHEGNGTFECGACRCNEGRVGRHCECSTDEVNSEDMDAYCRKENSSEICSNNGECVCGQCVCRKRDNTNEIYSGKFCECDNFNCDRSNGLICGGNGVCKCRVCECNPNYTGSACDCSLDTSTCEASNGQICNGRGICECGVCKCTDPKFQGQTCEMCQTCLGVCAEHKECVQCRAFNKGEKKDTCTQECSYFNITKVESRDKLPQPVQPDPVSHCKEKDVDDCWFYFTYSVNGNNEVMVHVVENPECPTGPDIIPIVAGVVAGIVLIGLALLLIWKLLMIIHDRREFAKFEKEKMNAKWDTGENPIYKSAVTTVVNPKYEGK
UniProt Q05030, sequence (Q05030 32-1097): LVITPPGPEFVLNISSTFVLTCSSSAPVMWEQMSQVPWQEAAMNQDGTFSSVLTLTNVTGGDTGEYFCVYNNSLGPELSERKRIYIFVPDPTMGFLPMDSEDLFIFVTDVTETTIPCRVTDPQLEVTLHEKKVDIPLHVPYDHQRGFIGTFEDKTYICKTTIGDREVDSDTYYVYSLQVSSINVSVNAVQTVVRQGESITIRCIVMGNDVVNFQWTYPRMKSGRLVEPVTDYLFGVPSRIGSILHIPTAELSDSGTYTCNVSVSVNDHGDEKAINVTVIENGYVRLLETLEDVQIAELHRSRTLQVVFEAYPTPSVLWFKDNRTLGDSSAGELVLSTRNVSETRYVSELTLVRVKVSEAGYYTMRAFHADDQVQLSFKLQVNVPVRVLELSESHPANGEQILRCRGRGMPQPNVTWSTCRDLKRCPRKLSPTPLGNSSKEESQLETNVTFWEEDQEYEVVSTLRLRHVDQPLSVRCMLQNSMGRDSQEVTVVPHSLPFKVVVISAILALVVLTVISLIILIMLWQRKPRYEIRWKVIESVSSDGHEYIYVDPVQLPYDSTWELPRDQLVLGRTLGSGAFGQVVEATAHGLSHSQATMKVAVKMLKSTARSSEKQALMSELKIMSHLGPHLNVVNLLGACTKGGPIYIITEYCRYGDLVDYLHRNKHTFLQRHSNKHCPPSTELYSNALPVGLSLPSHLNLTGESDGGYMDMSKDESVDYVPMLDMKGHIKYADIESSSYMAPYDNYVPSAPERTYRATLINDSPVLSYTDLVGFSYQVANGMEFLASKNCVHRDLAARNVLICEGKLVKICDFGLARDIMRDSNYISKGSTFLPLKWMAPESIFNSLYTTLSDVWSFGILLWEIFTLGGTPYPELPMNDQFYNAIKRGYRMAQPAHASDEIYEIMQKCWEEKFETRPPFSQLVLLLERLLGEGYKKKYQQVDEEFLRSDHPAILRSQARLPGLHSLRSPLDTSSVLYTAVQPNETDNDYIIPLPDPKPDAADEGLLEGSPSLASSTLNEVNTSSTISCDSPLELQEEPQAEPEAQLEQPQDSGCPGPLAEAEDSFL

Take “APC Mouse Anti-Human CD29, Cat: 559883 (antibody)”: the surface antigen positive rate in [1] turned out to be 99.6%; in experiment [2], 99.6%; in experiment [3], 99.5%; in experiment [4], 99.4%.

Turning to “Anti-PDGF Receptor β Human Goat-Poly (R & D Systems Cat. No. AF385) (antibody)”, the Expression rate (percent positive cells) amounted to 32.8% in [5], 76.9% in [6], 63.3% in [8] and 91.6% in experiment [11]. Also, the surface antigen positive rate in experiment [7] was determined as 95.2%; in experiment [9], 90.7%; in experiment [10], 85.9%; in [12], 92.2%. In experiment [13], this substance yielded an ATP concentration (cell proliferation with rat PDGF-BB 4 ng/mL, Cell Titer Glo, 6th day of culture), 10 µg/mL PDGFRb-rSMSC of 0.62 µmol/L. Moreover, the ATP concentration (cell proliferation with rat PDGF-BB 4 ng/mL, Cell Titer Glo, 6th day of culture), 20 µg/mL PDGFRb-rSMSC in experiment [13] was determined as 0.65 µmol/L. This substance returned an ATP concentration (cell proliferation with rat PDGF-BB 4 ng/mL, Cell Titer Glo, 6th day of culture), 40 µg/mL PDGFRb-rSMSC in experiment [13] of 0.24 µmol/L. Besides, the ATP concentration (cell proliferation, Cell Titer Glo, 6th day of culture), 40 µg/mL PDGFRb-rSMSC in experiment [13] turned out to be 3.78 µmol/L. Further, the ATP concentration (cell proliferation, Cell Titer Glo, 6th day of culture), 120 µg/mL PDGFRb-rSMSC in experiment [13] was found to be 4.12 µmol/L.

“PE anti-mouse/rat integrin β1 Antibody (Biolegend Cat. No. 102207)”: the Expression rate (percent positive cells) in [14] was 98.7%; in experiment [15], 96.1%; in [16], 56.1%; in experiment [17], 97.8%; in [18] it was 99.7%; in experiment [19], 97.8%. The Expression rate (percent positive cells) in experiment [20] is 62.1%.
